Data from the supplement of paper PMC7125110.
± gives the standard error. This sample holds only a part of the variants without activity.

B1: glmS ribozyme (parent)
chain: AUAAAAGCGCCAGAACUACAGAAAUGUAGUUGACGAGGAGGAGGUUUAUCGAAUUUUCGGCGGAUGCCUCCAAA

Experiments:
Conditions in all cases: with glucosamine-6-phosphate
glucosamine-6-phosphate [1] = variants of: B1; test: self-cleavage kobs at 40 uM GlcN6P; higher = faster cleavage; RNA array
Method in brief: (§1)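 Barcoded ribozyme variants on sequenced MiSeq chips were transcribed in situ by E. coli RNA polymerase and followed at 37 °C through a hybridised Cy3 probe. Glucosamine-6-phosphate at 40 μM to 10 mM in HEPES/KCl/Mg(OAc)2 buffer was flowed in, and tiles were imaged over ~14 h. Signals were normalised to baseline and to non-cleaving reference variants, and per-tile medians were fit to one- or two-exponential decays to give kobs. Weighted Michaelis–Menten fits across concentrations gave kcat and KM.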

glucosamine-6-phosphate [2] = variants of: B1; test: self-cleavage kobs at 2500 uM GlcN6P; higher = faster cleavage; RNA array
Method in brief: as §1

glucosamine-6-phosphate [3] = variants of: B1; test: self-cleavage kobs at 640 uM GlcN6P; higher = faster cleavage; RNA array
Method in brief: as §1

glucosamine-6-phosphate [4] = variants of: B1; test: self-cleavage kobs at 10000 uM GlcN6P; higher = faster cleavage; RNA array
Method in brief: as §1

glucosamine-6-phosphate [5] = variants of: B1; test: self-cleavage kobs at 160 uM GlcN6P; higher = faster cleavage; RNA array
Method in brief: as §1

Variant | self-cleavage kobs at 40 uM GlcN6P (glucosamine-6-phosphate [1]) [s⁻¹] | self-cleavage kobs at 2500 uM GlcN6P (glucosamine-6-phosphate [2]) [s⁻¹] | self-cleavage kobs at 640 uM GlcN6P (glucosamine-6-phosphate [3]) [s⁻¹] | self-cleavage kobs at 10000 uM GlcN6P (glucosamine-6-phosphate [4]) [s⁻¹] | self-cleavage kobs at 160 uM GlcN6P (glucosamine-6-phosphate [5]) [s⁻¹]
C10U U31G G40U | < 1e-05 | – | – | – | –
A36C C58A U65A C68G | 0.000139 ± 4.3e-05 | 0.000116 ± 2.7e-05 | – | – | –
G7A A14U C58A C68G | 0.000142 ± 4e-05 | – | 0.00047 ± 0.00023 | 0.00011 ± 2.5e-05 | –
G13C G29U A48U | < 1e-05 | – | < 1e-05 | – | –
G7A U30A U45C | < 1e-05 | < 1e-05 | – | < 1e-05 | –
U31G A42C C70U | < 1e-05 | – | – | – | –
G41U G62A G63U | < 1e-05 | – | – | < 1e-05 | –
A12U A36U G44A | < 1e-05 | – | – | – | –
G40A C50A C70G | < 1e-05 | – | – | – | –
G38U G59A C68G | 6.06e-05 ± 2.6e-05 | – | – | 4.84e-05 ± 1.9e-05 | –
G41A A48G | < 1e-05 | < 1e-05 | < 1e-05 | – | < 1e-05
G37U G43C | < 1e-05 | < 1e-05 | – | < 1e-05 | < 1e-05
A12G G37C | < 1e-05 | – | < 1e-05 | < 1e-05 | –
C58A G60A | < 1e-05 | – | – | < 1e-05 | < 1e-05
G44U A52C | < 1e-05 | < 1e-05 | < 1e-05 | < 1e-05 | < 1e-05
U31A G59C | < 1e-05 | < 1e-05 | < 1e-05 | < 1e-05 | < 1e-05
A15G U54A C71A | 0.000174 ± 5.4e-05 | – | – | 0.00522 ± 0.0014 | –
G7U G9C | < 1e-05 | < 1e-05 | < 1e-05 | < 1e-05 | < 1e-05
G7C A64G | < 1e-05 | < 1e-05 | < 1e-05 | – | < 1e-05
G7C A64U | < 1e-05 | < 1e-05 | – | < 1e-05 | –
U47G A52G U69C | 6.7e-05 ± 2.4e-05 | – | – | 9.36e-05 ± 1.5e-05 | –
G13A U47A G60U | < 1e-05 | – | < 1e-05 | < 1e-05 | < 1e-05
A42U G63U | < 1e-05 | < 1e-05 | – | < 1e-05 | < 1e-05

Variant | self-cleavage kobs at 40 uM GlcN6P (glucosamine-6-phosphate [1]) [s⁻¹] | self-cleavage kobs at 2500 uM GlcN6P (glucosamine-6-phosphate [2]) [s⁻¹] | self-cleavage kobs at 640 uM GlcN6P (glucosamine-6-phosphate [3]) [s⁻¹] | self-cleavage kobs at 10000 uM GlcN6P (glucosamine-6-phosphate [4]) [s⁻¹] | self-cleavage kobs at 160 uM GlcN6P (glucosamine-6-phosphate [5]) [s⁻¹]
A39C C50G A52C | < 1e-05 | – | – | – | –
G13A C16U C67U | < 1e-05 | 0.000111 ± 2.7e-05 | – | 0.00025 ± 4.5e-05 | –
U46G G51U U57A C70G | 4.37e-05 ± 1.9e-05 | – | – | – | –
G37U A48U C68A | < 1e-05 | – | – | < 1e-05 | –
A6U G7U C16G C34A | < 1e-05 | – | – | < 1e-05 | –
U47A C50A U54A | < 1e-05 | – | – | – | –
C10G G37U A42C | < 1e-05 | – | – | – | –
C8U G9C C10A G37U G40U G41A C50U | < 1e-05 | – | – | – | –
C10A G38U G40A | < 1e-05 | < 1e-05 | < 1e-05 | < 1e-05 | < 1e-05
U46A G51C | < 1e-05 | < 1e-05 | < 1e-05 | < 1e-05 | –
G26U C50G | 4.71e-05 ± 1.9e-05 | – | – | 3.96e-05 ± 1.3e-05 | –
G41C G43U | < 1e-05 | < 1e-05 | < 1e-05 | < 1e-05 | < 1e-05
G13A U45C A64G | < 1e-05 | – | – | – | –
G9U C70U | < 1e-05 | – | < 1e-05 | < 1e-05 | < 1e-05
G40A A53G | 0.000243 ± 5.3e-05 | 0.00571 ± 0.0011 | 0.0022 ± 0.0005 | 0.0242 ± 0.0054 | –
A6G C61A | < 1e-05 | < 1e-05 | – | < 1e-05 | –
G37C U54C C61U C67G | < 1e-05 | – | – | < 1e-05 | –
A15U U56A | 0.000156 ± 3.4e-05 | 0.00224 ± 0.00059 | 0.00152 ± 0.00021 | 0.00509 ± 0.00093 | 0.000209 ± 4.3e-05
C10G G37C U47A U57A G66C C70G | < 1e-05 | – | – | < 1e-05 | –
G9C U47C A53G G62A C68G | < 1e-05 | – | – | < 1e-05 | –
G41C G44C | < 1e-05 | < 1e-05 | < 1e-05 | < 1e-05 | < 1e-05
A6U G43A | < 1e-05 | – | – | < 1e-05 | < 1e-05
C50G U57A G63U A64U | 7.9e-05 ± 2.7e-05 | – | – | – | –
